Assay results as given in patent publication US6972324 (Boehringer Ingelheim, dated 2005).

T1: glutathione-S-transferase fusion protein containing domains v3-v10 of human CD44 (human, UniProt P16070 267-604)
T1 construct: also called GST/CD44v3-v10; recombinant antigen; not shown: glutathione-S-transferase (GST) fusion partner
T1 sequence (looked up): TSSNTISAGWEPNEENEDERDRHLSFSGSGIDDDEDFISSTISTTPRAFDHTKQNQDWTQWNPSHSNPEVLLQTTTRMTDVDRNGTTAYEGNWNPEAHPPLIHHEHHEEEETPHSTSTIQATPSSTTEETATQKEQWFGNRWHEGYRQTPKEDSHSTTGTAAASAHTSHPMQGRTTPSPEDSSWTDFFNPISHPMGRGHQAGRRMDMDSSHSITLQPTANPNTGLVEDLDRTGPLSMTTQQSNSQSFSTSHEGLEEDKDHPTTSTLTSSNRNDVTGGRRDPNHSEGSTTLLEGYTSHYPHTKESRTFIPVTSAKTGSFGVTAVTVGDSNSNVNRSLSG


Key:
[1] = target: CD44v6 on human tumour cells (human) (UniProt P16070); test: immunoreactivity assay, 186Re-MAG3-labelled MAb on fixed UM-SCC-11B cells
[2] = target: CD44v6 on human tumour cells (human) (UniProt P16070); test: immunoreactivity assay, 131I-labelled IgG on fixed UM-SCC-11B cells, linear extrapolation to infinite antigen excess, experiment 1
[3] = target: glutathione-S-transferase fusion protein containing domains v3-v10 of human CD44 (human) (UniProt P16070); test: SPR (BIAcore 2000), GST/CD44v3-v10 immobilized on CM5 chip, MAb injected at 8-67 nM
[4] = target: glutathione-S-transferase fusion protein containing domains v3-v10 of human CD44 (human) (UniProt P16070); test: SPR (BIAcore 2000), GST/CD44v3-v10 immobilized on CM5 chip
[5] = target: CD44v6 on human tumour cells (human) (UniProt P16070); test: immunoreactivity assay, 131I-labelled IgG on glutaraldehyde-fixed UM-SCC-11B cells, experiment 1
[6] = target: CD44v6 on human tumour cells (human) (UniProt P16070); test: competitive cell ELISA on fixed A431 cells against mMAb BIWA 1; IC50 relative to BIWA 2
[7] = target: CD44v6 on human tumour cells (human) (UniProt P16070); test: immunoreactivity assay, 125I-labelled IgG on glutaraldehyde-fixed UM-SCC-11B cells, experiment 2
[8] = target: CD44v6 on human tumour cells (human) (UniProt P16070); test: immunoreactivity assay, 125I-labelled IgG on fixed UM-SCC-11B cells, linear extrapolation to infinite antigen excess, experiment 2
[9] = target: T1, glutathione-S-transferase fusion …; test: ratio of affinities (SPR on GST/CD44v3-v10, Table 1)
[10] = target: T1, glutathione-S-transferase fusion …; test: SPR (BIAcore 2000), GST/CD44v3-v10 immobilized on CM5 chip, MAb injected at 8-67 nM
Description: (§1) Evaluation of antibody affinity. Measurement of kinetic and affinity constants using recombinant antigen was performed on a BIAcore 2000 system (BIAcore AB, Uppsala, Sweden). A glutathione-S-transferase fusion protein containing domains v3–v10 of human CD44 (GST/CD44v3–v10; 20 μg/ml) was immobilized on a CM5 sensor chip by the amine coupling method according to the manufacturer's instructions, using 10 mM sodium acetate pH 5.0 as coupling buffer. 35 μl of MAb at various concentrations (8–67 nM) in HBS (10 mM HEPES, pH 7.4, 150 mM NaCl, 3.4 mM EDTA, 0.05% BLAcore surfactant P20) were injected over the antigen-coated surface at a flow rate of 5 μL/min. Dissociation of the MAb was assessed for 5 minutes in buffer flow (HBS). Between two analyses, the surface of the chip was regenerated with a single pulse of 15 μl 30 mM HCl. Analysis of the data and calculation of the kinetic constants were performed with BIAcore's BIAevaluation software, version 2.1. Association rates (k_a), dissociation rates (k_d), and dissociation constants (K_d) were assessed for all antibodies.
(§2) In vitro binding characteristics of the CD44v6specific MAbs. The binding affinities of the five MAbs were analyzed using recombinant antigen as well as human tumor cell lines. Kinetic and affinity constants were evaluated by surface plasmon resonance using GST/CD44v3–v10 as immobilized antigen.

[11] = target: CD44v6 on human tumour cells (human) (UniProt P16070); test: immunoreactivity assay, 131I-labelled IgG on fixed UM-SCC-11B cells, linear extrapolation to infinite antigen excess, experiment 2
[12] = target: T1, glutathione-S-transferase fusion …; test: SPR (BIAcore 2000), GST/CD44v3-v10 immobilized on CM5 chip
Description: as §1, §2

[13] = target: CD44v6 on human tumour cells (human) (UniProt P16070); test: immunoreactivity assay, 131I-labelled IgG on fixed UM-SCC-11B cells, linear extrapolation to infinite antigen excess, experiment 3
[14] = target: CD44v6 on human tumour cells (human) (UniProt P16070); test: competitive cell ELISA on fixed A431 cells; inhibition of binding of mMAb BIWA 1, detected with peroxidase-conjugated anti-mouse Fc; unit taken from the concentration axis
[15] = target: CD44v6 on human tumour cells (human) (UniProt P16070); test: immunoreactivity assay, 131I-labelled IgG on glutaraldehyde-fixed UM-SCC-11B cells, experiment 3
[16] = target: CD44v6 on human tumour cells (human) (UniProt P16070); test: immunoreactivity assay, 131I-labelled IgG on glutaraldehyde-fixed UM-SCC-11B cells, experiment 2
[17] = target: CD44v6 on human tumour cells (human) (UniProt P16070); test: immunoreactivity assay of clinical 99mTc-/186Re-MAG3-labelled BIWA 4 batches on fixed UM-SCC 11B cells
[18] = target: CD44v6 on human tumour cells (human) (UniProt P16070); test: immunoreactivity assay, 125I-labelled IgG on glutaraldehyde-fixed UM-SCC-11B cells, experiment 3
[19] = target: CD44v6 on human tumour cells (human) (UniProt P16070); test: immunoreactivity assay, 125I-labelled IgG on fixed UM-SCC-11B cells, linear extrapolation to infinite antigen excess, experiment 3

Molecule | immunoreactive fraction [1] | Kd [3] | koff [3] | kon [3] | Kd relative to murine BIWA 1 [4] | relative IC50 values [6] | Kd [10] | koff [10] | kon [10] | Kd relative to murine BIWA 1 [12] | IC50 [14] | other results
mMAb U36 (antibody) | 75% | 11 nM | 0.00017 s⁻¹ | 15000 M⁻¹ s⁻¹ | 35 fold | – | – | – | – | – | – | Binding Extrapolated (%) (immunoreactive fraction) [2]: 87.4%; Binding to 5 × 10^6 cells (%) [5]: 59.7%
cMAb BIWA 2 (antibody) | 75% | 0.24 nM | 4.1e-05 s⁻¹ | 170000 M⁻¹ s⁻¹ | 0.7 fold | 1 | – | – | – | – | – | Binding to 5 × 10^6 cells (%) [7]: 80.5%; Binding Extrapolated (%) (immunoreactive fraction) [8]: 79.9%
hMAb BIWA 4 (antibody, human IgG1, kappa, V domains shown, CDR-grafted humanised version of BIWA 1 without murine framework residues; human IgG1/kappa; in the clinical study as 99mTc- or 186Re-MAG3 conjugate; also called Humanized BIWA 4; bivatuzumab) VH: EVQLVESGGGLVKPGGSLRLSCAASGFTFSSYDMSWVRQAPGKGLEWVSTISSGGSYTYYLDSIKGRFTISRDNAKNSLYLQMNSLRAEDTAVYYCARQGLDYWGRGTLVTVSS VL: EIVLTQSPATLSLSPGERATLSCSASSSINYIYWYQQKPGQAPRLLIYLTSNLASGVPARFSGSGSGTDFTLTISSLEPEDFAVYYCLQWSSNPLTFGGGTKVEIKR | 75% | – | – | – | – | 44 | 3.4 nM | 0.00022 s⁻¹ | 65000 M⁻¹ s⁻¹ | 10.5 fold | 8.01 µg/mL | fold lower affinity than cMAb BIWA 2 [9]: 14 fold; fold lower affinity than hMAb BIWA 8 [9]: 4 fold; Binding Extrapolated (%) (immunoreactive fraction) [11]: 82.3%; Binding Extrapolated (%) (immunoreactive fraction) [13]: 74.5%; Binding to 5 × 10^6 cells (%) [15]: 77.3%; Binding to 5 × 10^6 cells (%) [16]: 77.4%; immunoreactive fraction [17]: 80%
hMAb BIWA 8 (antibody, human IgG1, kappa, V domains shown, CDR-grafted humanised version of BIWA 1 with two murine residues in light chain framework 2; human IgG1/kappa; also called Humanized BIWA 8) VH: EVQLVESGGGLVKPGGSLRLSCAASGFTFSSYDMSWVRQAPGKGLEWVSTISSGGSYTYYLDSIKGRFTISRDNAKNSLYLQMNSLRAEDTAVYYCARQGLDYWGRGTLVTVSS VL: EIVLTQSPATLSLSPGERATLSCSASSSINYIYWLQQKPGQAPRILIYLTSNLASGVPARFSGSGSGTDFTLTISSLEPEDFAVYYCLQWSSNPLTFGGGTKVEIKR | 75% | – | – | – | – | 2 | 0.84 nM | 6.3e-05 s⁻¹ | 75000 M⁻¹ s⁻¹ | 2.6 fold | 0.335 µg/mL | Binding to 5 × 10^6 cells (%) [18]: 91.8%; Binding Extrapolated (%) (immunoreactive fraction) [19]: 92.1%
